± gives the uncertainty stated by the source.
Experiment: protein stability index of a GFP-peptide fusion (yeast GPS) (PSI 1-4); higher = more stable; sorted into four equal gates, so the index is relative within each strain
How it was run: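 Each library plasmid carries Cherry plus GFP with a tiled 17-residue yeast protein peptide fused downstream, and the pooled library was carried in yeast. Mid-log cultures in leucine-free medium were sorted into four equal gates by GFP/Cherry ratio. Reads from Illumina sequencing of PCR-amplified plasmids from each gate were assigned to strains by barcodes. Per peptide, the protein stability index was computed as the summed products of gate read frequency and gate number.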

Sequence | protein stability index (doa10∆) | protein stability index (pdr5∆) | protein stability index (san1∆) | protein stability index (ubr1∆)
NFLQESYEVEHVIQIPL [TAF14] | 2.49 ± 0.094 | 2.94 ± 0.092 | 2.55 ± 0.067 | 2.81 ± 0.082
DKDNPVDSRNETDHKTN [SRB4] | 3.38 ± 0.14 | 2.85 ± 0.15 | 2.88 ± 0.086 | 3.3 ± 0.18
LVTPKSFLFDVLKTLEY [NUT1] | 2.91 ± 0.18 | 2.98 ± 0.18 | 3.1 ± 0.15 | 2.92 ± 0.18
ISNKDVIFKIRDRTSGQ [SRB4] | 3.42 ± 0.11 | 3.02 ± 0.13 | 3.42 ± 0.077 | 3.14 ± 0.11
IGLLNKSKSSLDGKFSL [RPN2] | 2.67 ± 0.089 | 2.85 ± 0.15 | 2.5 ± 0.14 | 2.74 ± 0.093
HQGTPLGSHSSSQKDGN [REC8] | 3.21 ± 0.094 | 3.29 ± 0.093 | 2.88 ± 0.13 | 3.35 ± 0.089
MKTKTINAQGEEIVVVA [PRP8] | 1.72 ± 0.089 | 1.92 ± 0.12 | 1.36 ± 0.19 | 1.52 ± 0.06
VKIHSQESLLSRTFDKY [SRP72] | 2.92 ± 0.053 | 2.79 ± 0.071 | 2.96 ± 0.055 | 2.57 ± 0.041
IKTVVLVPQLGHVGSVQ [PRP8] | 2.42 ± 0.056 | 2.47 ± 0.049 | 2.28 ± 0.063 | 2.35 ± 0.041
PHQSPDATRVFVNGVWH [RPB2] | 2.84 ± 0.061 | 3.05 ± 0.056 | 2.98 ± 0.047 | 3.15 ± 0.045
EVSTSTSMTGDANLLEE [SWI3] | 3.09 ± 0.13 | 3.23 ± 0.11 | 3.24 ± 0.042 | 3.3 ± 0.041
TRYMFQRDFRKHGAVHL [RPL21A] | 2.42 ± 0.062 | 2.27 ± 0.069 | 2.33 ± 0.084 | 2.44 ± 0.092
MCEQALSALFTISSKPD [YCS4] | 2.22 ± 0.038 | 1.72 ± 0.04 | 1.87 ± 0.056 | 1.77 ± 0.032
FIKFKLIQQVPPGLDAL [CDC53] | 2.29 ± 0.067 | 2.13 ± 0.11 | 2.23 ± 0.13 | 2.27 ± 0.095
DQTFPINCNKETIENVK [ECM29] | 3.17 ± 0.082 | 2.93 ± 0.099 | 3.08 ± 0.07 | 3.4 ± 0.088
EKDFCTSCLQNNNQKID [SRB8] | 3.13 ± 0.09 | 3.29 ± 0.13 |  | 2.93 ± 0.055
DEFIKTHEDLPKEVDGL [IRR1] | 3.2 ± 0.081 | 3.29 ± 0.094 | 3.04 ± 0.078 | 3.21 ± 0.067
SKLDYIFKDKEKLVSDL [SMC1] | 2.89 ± 0.15 | 3.24 ± 0.085 | 3.27 ± 0.2 | 3.37 ± 0.083
FSYQEVEFKLPKELVPS [CDC53] | 2.13 ± 0.056 | 2.16 ± 0.045 | 2.07 ± 0.076 | 1.91 ± 0.047
KKNNKIKESSKKIKGKS [SRP21] | 3.07 ± 0.1 |  | 3.26 ± 0.052 | 
VVAKLEDKRKVRSAEYY [RPL16B] | 3.49 ± 0.1 | 3.58 ± 0.11 | 3.15 ± 0.12 | 3.37 ± 0.14
KDDMKVDDAIELALKTL [PRE9] | 2.76 ± 0.25 | 3.52 ± 0.1 | 3.18 ± 0.077 | 3.65 ± 0.09
AAVIMRCKIYFFYLRIS [PCI8] | 1.33 ± 0.067 | 1.35 ± 0.06 | 1.15 ± 0.11 | 1.09 ± 0.088
KLEGSENSEPPALESSP [SNF2] | 3.09 ± 0.073 | 2.97 ± 0.064 | 3.28 ± 0.071 | 3.26 ± 0.057
NLRKSRGMLGLLEPPAK [RPO31] | 1.61 ± 0.22 | 1.18 ± 0.21 |  | 
SKLKLKNLLRKNLSIDE [ECM29] | 1.71 ± 0.086 | 1.47 ± 0.054 | 1.46 ± 0.098 | 1.76 ± 0.062

Sequence | protein stability index (doa10∆) | protein stability index (pdr5∆) | protein stability index (san1∆) | protein stability index (ubr1∆)
AARHRARFRSIHILKVA [RPL20A] | 1.22 ± 0.077 | 1.18 ± 0.042 | 1.22 ± 0.11 | 1.1 ± 0.059
DVYSPEKGSWEQLSPQD [BRR2] | 3.15 ± 0.15 |  | 2.47 ± 0.24 | 3.34 ± 0.25
SQVKDSVTETESISQTP [SRP68] | 2.92 ± 0.12 | 3.02 ± 0.11 | 3.22 ± 0.21 | 2.93 ± 0.084
AISQSLRDESLTVDNLS [PRE5] | 2.96 ± 0.093 | 3.15 ± 0.089 | 3.33 ± 0.078 | 3.32 ± 0.06
RHSGKVYPITLSTDATS [UBP6] | 1.98 ± 0.072 | 2.76 ± 0.066 | 2.74 ± 0.057 | 2.02 ± 0.045
DVTHTLGMLDDNKMDSV [SMC4] | 3.15 ± 0.095 | 3.03 ± 0.082 | 3.21 ± 0.049 | 3.27 ± 0.097
SNTSTSKMLDAASSQVS [SNF12] | 2.51 ± 0.052 | 2.8 ± 0.042 | 2.5 ± 0.12 | 2.83 ± 0.051
SQAFDIVAALPISEKGL [RPP1] | 2.85 ± 0.18 | 3.02 ± 0.2 | 2.66 ± 0.18 | 2.66 ± 0.15
YPNEVLKFNHGNYSHLM [REC8] | 2.7 ± 0.13 | 2.65 ± 0.059 | 2.76 ± 0.059 | 2.88 ± 0.061
KNLQRESCEDILDLKEF [RTT102] | 3.59 ± 0.21 | 3.31 ± 0.13 | 3.17 ± 0.28 | 3.45 ± 0.16
LIELLTQMDGFDQSTNV [RPT3] | 2.33 ± 0.088 | 2.19 ± 0.075 | 1.56 ± 0.15 | 2.05 ± 0.08
VLSQFERSYPSEFANQN [ROX3] | 2.26 ± 0.098 | 3.15 ± 0.097 | 2.63 ± 0.15 | 2.78 ± 0.11
SSFRPCPLSQQFCGIKE [BRR2] | 2.45 ± 0.073 | 1.9 ± 0.054 | 2.38 ± 0.068 | 2.31 ± 0.037
GSAELRNSYPASFYSVN [RPN3] | 3.12 ± 0.21 | 3.15 ± 0.11 | 2.87 ± 0.059 | 3.55 ± 0.092
LFYFDSSFRPCPLSQQF [BRR2] | 2.47 ± 0.072 | 1.89 ± 0.051 | 2.68 ± 0.061 | 2.41 ± 0.033
LGDMENNLEKYPFRYKT [RTT102] | 3.44 ± 0.073 | 3.39 ± 0.055 | 3.46 ± 0.042 | 3.43 ± 0.081
QLLDIAEFKKENLADLD [LIN1] | 1.48 ± 0.092 | 1.55 ± 0.097 | 1.24 ± 0.12 | 2.95 ± 0.096
FATTKAECISLICSIGL [ECM29] | 1.5 ± 0.059 | 1.97 ± 0.056 | 1.65 ± 0.13 | 1.77 ± 0.05
QNRRLAFEELEGSWDRG [PRP8] | 2.91 ± 0.17 | 3.31 ± 0.17 | 3.24 ± 0.15 | 3.31 ± 0.16
FPEENIIDAKTRNEQTT [MCD1] | 3.29 ± 0.09 | 3.16 ± 0.057 | 3.19 ± 0.052 | 3.08 ± 0.054
PVIGVFQKFLTGHPKGA [FAS2] | 3.34 ± 0.19 | 2.79 ± 0.16 | 2.57 ± 0.2 | 3.52 ± 0.24
TKGENYQLVKTLGEQLI [FAS2] | 3.06 ± 0.11 | 3.24 ± 0.13 | 2.6 ± 0.13 | 3.27 ± 0.15
KHLEDNTLLVTGPFKVN [RPL6B] | 3.03 ± 0.18 | 2.53 ± 0.16 | 3.08 ± 0.093 | 1.78 ± 0.072
VREFLEKNYDRKEPPAT [PRE6] | 3.29 ± 0.13 | 3.28 ± 0.1 | 3.11 ± 0.071 | 3.3 ± 0.068
FEGCYYTPEESAWIWPM [RPC25] |  | 2.3 ± 0.21 | 2.55 ± 0.2 | 2.52 ± 0.13

Reference: the supplement of paper PMC9732359
